# Test results reported in patent US20200087347 (published 2020).
# Where two headings read alike, the source gives them in different places. Side-chain parts run from the residue outwards. [ ]: non-standard residue; d: D form. NMeK = CN[C@@H](CCCCN)C(=O)O; Ahx = NCCCCCC(=O)O; BDPFL = dye
# T1: integrin αvβ6 (human, UniProt P06756)
# T1 chain 1: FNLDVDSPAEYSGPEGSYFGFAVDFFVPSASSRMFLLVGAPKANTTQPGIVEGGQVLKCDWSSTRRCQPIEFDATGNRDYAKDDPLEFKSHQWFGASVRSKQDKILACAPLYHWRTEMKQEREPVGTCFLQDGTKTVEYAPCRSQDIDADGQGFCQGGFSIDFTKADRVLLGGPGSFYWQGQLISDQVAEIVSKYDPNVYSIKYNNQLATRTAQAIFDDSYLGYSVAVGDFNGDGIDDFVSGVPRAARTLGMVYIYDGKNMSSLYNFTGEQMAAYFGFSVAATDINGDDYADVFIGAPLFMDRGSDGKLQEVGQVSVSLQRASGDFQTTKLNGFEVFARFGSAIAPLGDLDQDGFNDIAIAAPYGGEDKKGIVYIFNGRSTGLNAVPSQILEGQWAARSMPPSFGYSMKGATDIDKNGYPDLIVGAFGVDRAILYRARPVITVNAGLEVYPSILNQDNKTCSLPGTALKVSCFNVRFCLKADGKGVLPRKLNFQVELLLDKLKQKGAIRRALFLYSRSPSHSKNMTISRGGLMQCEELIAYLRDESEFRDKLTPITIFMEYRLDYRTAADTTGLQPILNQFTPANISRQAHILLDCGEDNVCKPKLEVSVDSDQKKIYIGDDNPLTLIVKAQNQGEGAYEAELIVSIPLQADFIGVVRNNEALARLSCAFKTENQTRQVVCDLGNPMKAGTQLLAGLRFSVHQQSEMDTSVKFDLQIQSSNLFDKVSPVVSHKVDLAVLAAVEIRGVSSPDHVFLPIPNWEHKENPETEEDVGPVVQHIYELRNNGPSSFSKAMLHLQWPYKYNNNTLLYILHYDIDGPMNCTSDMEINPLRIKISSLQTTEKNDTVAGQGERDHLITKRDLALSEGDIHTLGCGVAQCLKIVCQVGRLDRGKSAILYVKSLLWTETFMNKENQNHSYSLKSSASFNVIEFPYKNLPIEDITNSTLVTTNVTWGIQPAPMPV
# T1 chain 2: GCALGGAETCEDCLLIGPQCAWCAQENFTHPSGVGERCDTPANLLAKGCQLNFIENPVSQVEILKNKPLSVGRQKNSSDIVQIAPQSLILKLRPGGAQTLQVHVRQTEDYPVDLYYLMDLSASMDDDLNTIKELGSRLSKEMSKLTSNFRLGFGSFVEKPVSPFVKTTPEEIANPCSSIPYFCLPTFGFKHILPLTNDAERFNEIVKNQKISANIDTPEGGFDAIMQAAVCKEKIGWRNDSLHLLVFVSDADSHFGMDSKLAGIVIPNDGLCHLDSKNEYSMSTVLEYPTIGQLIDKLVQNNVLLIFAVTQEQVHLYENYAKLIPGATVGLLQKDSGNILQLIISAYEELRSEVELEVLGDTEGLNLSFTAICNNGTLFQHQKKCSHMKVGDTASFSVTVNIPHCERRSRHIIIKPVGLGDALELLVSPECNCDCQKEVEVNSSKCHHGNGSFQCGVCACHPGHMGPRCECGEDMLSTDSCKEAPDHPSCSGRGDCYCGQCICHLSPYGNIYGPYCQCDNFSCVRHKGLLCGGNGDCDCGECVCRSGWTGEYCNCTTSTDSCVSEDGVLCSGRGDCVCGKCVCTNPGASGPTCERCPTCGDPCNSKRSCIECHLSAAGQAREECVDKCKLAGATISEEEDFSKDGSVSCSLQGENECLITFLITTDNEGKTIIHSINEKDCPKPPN
# T2: integrin αvβ3 (human, UniProt P06756)
# T2 chain 1: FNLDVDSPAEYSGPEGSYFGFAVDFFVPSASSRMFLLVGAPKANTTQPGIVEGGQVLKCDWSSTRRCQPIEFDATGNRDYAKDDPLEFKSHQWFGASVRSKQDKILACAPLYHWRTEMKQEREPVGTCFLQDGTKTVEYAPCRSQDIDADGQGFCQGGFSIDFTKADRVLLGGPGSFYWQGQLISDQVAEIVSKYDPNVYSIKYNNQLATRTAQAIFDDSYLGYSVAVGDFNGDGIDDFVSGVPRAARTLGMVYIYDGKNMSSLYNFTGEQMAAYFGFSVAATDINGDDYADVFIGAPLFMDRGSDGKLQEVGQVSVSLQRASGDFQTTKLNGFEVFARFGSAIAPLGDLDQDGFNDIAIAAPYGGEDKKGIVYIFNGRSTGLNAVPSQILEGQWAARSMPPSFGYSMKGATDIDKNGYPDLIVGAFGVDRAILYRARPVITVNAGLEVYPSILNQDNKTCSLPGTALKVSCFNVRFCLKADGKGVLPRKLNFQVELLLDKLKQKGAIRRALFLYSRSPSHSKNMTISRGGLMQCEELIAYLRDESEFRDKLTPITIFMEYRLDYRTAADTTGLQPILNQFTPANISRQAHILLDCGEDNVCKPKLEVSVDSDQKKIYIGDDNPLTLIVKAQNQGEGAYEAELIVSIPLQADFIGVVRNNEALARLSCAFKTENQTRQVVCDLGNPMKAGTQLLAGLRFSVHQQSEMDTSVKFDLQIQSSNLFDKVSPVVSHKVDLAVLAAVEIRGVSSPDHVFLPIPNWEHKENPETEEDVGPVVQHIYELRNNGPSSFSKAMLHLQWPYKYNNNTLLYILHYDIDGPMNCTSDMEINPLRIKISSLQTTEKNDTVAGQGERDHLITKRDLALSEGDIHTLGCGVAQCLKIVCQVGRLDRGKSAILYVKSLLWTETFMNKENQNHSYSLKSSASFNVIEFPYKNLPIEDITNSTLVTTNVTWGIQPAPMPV
# T2 chain 2: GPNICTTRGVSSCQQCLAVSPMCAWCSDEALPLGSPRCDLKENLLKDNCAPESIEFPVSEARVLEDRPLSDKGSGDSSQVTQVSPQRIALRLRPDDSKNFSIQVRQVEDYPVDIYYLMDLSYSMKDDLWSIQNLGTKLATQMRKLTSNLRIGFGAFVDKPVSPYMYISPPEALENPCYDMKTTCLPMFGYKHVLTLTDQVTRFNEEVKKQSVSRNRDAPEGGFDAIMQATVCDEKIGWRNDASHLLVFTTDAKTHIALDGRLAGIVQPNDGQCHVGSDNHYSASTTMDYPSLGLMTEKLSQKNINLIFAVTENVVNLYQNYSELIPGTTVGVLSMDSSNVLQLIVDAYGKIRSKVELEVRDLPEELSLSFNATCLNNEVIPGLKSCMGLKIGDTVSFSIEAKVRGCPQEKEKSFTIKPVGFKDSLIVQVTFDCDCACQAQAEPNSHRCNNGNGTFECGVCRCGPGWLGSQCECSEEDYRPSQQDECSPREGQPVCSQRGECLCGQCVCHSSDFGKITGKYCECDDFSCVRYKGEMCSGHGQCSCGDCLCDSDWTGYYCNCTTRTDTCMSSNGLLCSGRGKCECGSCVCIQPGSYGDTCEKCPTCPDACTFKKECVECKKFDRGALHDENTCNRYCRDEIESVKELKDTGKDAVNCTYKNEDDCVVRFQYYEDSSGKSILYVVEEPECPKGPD
# T3: integrin αvβ5 (human, UniProt P06756)
# T3 chain 1: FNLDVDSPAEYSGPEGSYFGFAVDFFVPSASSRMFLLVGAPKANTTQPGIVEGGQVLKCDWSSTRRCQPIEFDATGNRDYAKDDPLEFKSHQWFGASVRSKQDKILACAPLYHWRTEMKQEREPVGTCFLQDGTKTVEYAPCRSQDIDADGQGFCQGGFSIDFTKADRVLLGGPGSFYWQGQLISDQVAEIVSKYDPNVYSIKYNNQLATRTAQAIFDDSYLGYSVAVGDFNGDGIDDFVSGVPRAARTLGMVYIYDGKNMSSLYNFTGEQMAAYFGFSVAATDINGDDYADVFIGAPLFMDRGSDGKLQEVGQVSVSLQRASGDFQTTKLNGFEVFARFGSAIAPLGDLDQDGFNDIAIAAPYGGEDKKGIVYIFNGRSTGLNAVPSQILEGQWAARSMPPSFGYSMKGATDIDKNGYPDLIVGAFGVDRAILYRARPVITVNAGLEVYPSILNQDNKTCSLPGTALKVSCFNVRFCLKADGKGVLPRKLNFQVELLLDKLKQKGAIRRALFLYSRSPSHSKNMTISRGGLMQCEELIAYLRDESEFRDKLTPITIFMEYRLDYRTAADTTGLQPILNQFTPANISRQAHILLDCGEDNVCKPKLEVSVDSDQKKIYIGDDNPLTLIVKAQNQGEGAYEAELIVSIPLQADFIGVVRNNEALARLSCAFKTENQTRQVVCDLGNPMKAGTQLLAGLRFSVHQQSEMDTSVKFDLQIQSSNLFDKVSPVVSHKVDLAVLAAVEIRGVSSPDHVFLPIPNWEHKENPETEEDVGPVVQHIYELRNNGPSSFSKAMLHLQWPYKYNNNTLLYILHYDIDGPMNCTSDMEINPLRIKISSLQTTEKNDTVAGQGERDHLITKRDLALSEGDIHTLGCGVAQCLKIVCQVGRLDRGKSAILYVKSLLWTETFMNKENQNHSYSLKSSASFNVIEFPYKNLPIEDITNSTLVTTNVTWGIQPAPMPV
# T3 chain 2: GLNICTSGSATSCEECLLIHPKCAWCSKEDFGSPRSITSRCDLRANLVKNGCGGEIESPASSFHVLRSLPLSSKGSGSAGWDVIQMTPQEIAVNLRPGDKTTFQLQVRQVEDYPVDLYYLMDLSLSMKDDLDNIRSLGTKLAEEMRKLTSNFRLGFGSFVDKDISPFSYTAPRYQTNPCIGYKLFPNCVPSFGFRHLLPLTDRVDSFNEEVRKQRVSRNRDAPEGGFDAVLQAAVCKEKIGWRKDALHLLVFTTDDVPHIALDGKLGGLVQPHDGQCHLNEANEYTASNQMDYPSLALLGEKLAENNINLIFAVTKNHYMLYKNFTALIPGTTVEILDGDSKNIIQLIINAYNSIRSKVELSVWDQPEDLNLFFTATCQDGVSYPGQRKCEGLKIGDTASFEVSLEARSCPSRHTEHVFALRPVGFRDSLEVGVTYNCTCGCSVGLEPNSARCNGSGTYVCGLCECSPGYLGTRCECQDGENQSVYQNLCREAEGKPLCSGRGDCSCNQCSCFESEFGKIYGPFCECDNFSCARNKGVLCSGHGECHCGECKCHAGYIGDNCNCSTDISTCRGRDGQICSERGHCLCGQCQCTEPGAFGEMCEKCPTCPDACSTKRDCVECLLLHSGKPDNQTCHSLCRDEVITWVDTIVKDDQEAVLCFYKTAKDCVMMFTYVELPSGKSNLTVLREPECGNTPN
# T4: integrin αvβ8 (human, UniProt P06756)
# T4 chain 1: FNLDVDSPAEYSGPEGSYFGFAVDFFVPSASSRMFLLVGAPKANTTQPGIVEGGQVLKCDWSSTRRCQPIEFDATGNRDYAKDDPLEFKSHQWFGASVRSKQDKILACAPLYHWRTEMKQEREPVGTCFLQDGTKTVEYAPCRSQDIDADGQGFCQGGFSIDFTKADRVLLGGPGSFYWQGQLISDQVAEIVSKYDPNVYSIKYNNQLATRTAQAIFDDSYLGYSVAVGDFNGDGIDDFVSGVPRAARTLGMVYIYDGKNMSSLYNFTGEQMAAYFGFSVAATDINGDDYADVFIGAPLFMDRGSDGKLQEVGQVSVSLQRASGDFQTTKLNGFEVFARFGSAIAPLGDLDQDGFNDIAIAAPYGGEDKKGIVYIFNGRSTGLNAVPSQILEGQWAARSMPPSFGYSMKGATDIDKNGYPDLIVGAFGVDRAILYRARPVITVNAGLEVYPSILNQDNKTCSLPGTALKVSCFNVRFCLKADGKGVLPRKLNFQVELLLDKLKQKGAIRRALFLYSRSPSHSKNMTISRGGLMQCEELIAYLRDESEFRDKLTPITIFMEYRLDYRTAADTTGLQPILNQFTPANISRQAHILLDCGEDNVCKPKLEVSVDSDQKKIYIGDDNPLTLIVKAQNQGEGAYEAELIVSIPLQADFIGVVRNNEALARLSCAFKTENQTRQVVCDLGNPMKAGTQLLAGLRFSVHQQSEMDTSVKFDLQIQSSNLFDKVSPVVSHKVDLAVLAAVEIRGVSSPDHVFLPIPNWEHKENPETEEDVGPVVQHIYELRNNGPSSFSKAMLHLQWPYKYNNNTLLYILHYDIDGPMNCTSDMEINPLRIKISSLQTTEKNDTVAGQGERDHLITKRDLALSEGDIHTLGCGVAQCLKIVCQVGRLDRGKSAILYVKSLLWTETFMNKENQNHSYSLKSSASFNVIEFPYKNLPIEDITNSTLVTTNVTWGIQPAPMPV
# T4 chain 2: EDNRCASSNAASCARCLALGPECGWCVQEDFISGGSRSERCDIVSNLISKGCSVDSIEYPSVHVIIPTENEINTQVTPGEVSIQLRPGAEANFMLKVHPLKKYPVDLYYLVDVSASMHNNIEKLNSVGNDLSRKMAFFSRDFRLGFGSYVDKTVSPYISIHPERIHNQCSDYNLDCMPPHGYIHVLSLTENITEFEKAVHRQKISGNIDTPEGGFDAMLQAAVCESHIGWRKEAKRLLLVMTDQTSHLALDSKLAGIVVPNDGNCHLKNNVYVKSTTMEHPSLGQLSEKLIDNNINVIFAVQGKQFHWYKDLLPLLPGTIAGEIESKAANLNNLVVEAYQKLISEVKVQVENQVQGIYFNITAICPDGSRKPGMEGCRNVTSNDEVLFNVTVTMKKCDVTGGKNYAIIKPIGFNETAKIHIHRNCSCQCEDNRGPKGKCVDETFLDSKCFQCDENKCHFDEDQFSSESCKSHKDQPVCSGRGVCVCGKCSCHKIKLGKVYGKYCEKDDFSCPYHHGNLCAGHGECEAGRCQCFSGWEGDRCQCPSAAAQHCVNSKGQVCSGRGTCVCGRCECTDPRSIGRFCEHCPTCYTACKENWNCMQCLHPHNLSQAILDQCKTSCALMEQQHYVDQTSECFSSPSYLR
# Experiments:
# Test in all cases: competition
# integrin αvβ6 [1] = molecular target: T1, integrin αvβ6
# integrin αvβ3 [2] = molecular target: T2, integrin αvβ3
# integrin α5β1 = integrin α5β1 (human, UniProt P08648)
# Chain of integrin α5β1 (P08648 42-1049, chain 1 of 2): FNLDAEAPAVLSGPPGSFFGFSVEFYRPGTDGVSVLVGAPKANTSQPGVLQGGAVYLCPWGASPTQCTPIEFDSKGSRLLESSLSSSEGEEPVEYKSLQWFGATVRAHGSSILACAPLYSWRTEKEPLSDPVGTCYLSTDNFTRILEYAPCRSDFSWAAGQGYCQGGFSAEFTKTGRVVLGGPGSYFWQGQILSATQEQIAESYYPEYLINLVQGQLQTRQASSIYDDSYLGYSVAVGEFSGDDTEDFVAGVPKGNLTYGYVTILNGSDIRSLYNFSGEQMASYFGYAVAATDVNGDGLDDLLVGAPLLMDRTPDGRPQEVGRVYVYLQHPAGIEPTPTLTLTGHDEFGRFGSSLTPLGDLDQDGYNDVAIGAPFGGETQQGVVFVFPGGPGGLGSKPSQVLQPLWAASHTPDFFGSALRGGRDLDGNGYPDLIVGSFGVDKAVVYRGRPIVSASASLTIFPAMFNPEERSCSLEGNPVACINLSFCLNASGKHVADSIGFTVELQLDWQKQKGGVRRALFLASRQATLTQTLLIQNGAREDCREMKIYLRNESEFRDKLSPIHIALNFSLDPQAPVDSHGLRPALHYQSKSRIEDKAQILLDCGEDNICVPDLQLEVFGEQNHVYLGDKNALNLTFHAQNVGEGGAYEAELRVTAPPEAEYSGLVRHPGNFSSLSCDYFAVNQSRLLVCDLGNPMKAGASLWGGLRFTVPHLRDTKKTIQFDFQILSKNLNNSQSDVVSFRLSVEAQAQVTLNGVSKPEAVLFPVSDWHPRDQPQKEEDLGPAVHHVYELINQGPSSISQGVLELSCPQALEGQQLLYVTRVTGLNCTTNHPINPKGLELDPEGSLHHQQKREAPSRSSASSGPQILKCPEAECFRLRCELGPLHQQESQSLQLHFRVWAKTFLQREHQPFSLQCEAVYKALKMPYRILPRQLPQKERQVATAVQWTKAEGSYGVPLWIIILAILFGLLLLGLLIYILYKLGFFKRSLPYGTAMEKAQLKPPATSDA
# Chain of integrin α5β1 (chain, as listed by the source, chain 2 of 2): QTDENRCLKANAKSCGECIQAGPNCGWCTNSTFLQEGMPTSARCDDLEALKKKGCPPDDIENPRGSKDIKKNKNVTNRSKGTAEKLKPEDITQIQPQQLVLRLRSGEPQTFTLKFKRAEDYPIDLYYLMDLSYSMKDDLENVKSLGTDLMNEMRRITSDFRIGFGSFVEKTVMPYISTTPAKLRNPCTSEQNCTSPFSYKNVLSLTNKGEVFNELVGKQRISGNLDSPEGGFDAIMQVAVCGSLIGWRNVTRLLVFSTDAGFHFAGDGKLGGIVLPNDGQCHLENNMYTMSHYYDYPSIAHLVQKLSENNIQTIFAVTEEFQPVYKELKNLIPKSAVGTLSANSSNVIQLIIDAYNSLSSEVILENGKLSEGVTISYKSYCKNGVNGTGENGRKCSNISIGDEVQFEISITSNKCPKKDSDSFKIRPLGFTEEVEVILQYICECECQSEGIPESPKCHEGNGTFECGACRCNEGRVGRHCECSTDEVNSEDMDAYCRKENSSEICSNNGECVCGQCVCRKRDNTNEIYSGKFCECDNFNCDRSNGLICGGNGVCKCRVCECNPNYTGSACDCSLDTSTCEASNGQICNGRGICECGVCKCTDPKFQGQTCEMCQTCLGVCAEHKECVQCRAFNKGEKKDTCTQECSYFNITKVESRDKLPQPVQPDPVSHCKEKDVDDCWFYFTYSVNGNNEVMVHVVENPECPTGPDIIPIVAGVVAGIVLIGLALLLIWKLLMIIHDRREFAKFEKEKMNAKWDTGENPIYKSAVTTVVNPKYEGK
# integrin αvβ5 = molecular target: T3, integrin αvβ5
# integrin αvβ8 [3] = molecular target: T4, integrin αvβ8
# integrin αIIbβ3 = integrin αIIbβ3 (human, UniProt P08514)
# integrin αvβ3 [4] = molecular target: T2, integrin αvβ3
# integrin αvβ6 [5] = molecular target: T1, integrin αvβ6
# integrin αvβ8 [6] = molecular target: T4, integrin αvβ8
IC50 (integrin αvβ6 [1]),IC50 (integrin αvβ3 [2]),IC50 (integrin α5β1),IC50 (integrin αvβ5),IC50 (integrin αvβ8 [3]),IC50 (integrin αIIbβ3),IC50 (integrin αvβ3 [4]),IC50 (integrin αvβ6 [5]),IC50 (integrin αvβ8 [6]),Binder
201 nM,423 nM,> 1000 nM,> 1000 nM,6 nM,> 1000 nM,–,–,–,cyclo(RGDL[dP][NMeK](Ac)GL) [Compound 9]
–,–,–,–,–,–,> 10000 nM,> 10000 nM,1120 nM,cyclo(GLRVDL[dP][NMeK]([Ahx-BDPFL])) [Compound 11 (Table 3) c(GLRVDLp(NMe)K)-Ahx-BDPFL]
